Results reported in paper PMC7116857.

Molecular target: wild-type alpha-synuclein (UniProt P37840)
Assay: microfluidic free-flow electrophoresis

- oligomer concentration (aptamer-bound, 1:1 assumed): < 80 nM
Substance: wild-type alpha-synuclein (from UniProt P37840 1-140) (natural protein)
